Measured values from article PMC3742741 (PLoS ONE, 2013).
Square brackets hold non-standard residues; d marks the D form. SeMet = C[Se]CC[C@H](N)C(=O)O

Tests used:
[1] = biological target: T1, His-tagged full-length C-terminal cytoplasmic domain of BAP31 (residues 124-242) (Homo sapiens (Human), UniProt P51572); assay: IMAC pull-down
T1 chain: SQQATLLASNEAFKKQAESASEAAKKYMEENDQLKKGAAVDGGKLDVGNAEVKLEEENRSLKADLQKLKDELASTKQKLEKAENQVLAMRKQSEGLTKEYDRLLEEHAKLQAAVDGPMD

[2] = biological target: T2, BAP31 full-length C-terminal cytoplasmic region (residues 124-242), untagged (Homo sapiens (Human), UniProt P51572); assay: analytical gel filtration
T2 chain: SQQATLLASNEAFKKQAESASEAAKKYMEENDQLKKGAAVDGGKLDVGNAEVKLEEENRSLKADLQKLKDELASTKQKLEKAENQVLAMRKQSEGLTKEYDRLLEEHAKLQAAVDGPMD

[3] = biological target: the molecule itself; assay: crystal structure; twinned P3_(2)21 form, selenomethionine labeled protein, crystal grown at 19 °C in 100 mM Na citrate pH 4.2, 33% PEG 400, 200 mM LiSO4
[4] = biological target: T3, His-tagged full-length C-terminal cytoplasmic domain of BAP29 (residues 125-237) (Homo sapiens (Human), UniProt Q9UHQ4); assay: IMAC pull-down
T3 chain: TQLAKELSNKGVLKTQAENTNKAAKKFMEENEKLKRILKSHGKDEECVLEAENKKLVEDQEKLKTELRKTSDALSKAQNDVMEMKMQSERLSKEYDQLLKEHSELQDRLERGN

[5] = biological target: the molecule itself; assay: CD thermal unfolding against protein concentration; midpoint of thermal unfolding at pH 6.0 with 0.25 µM to 5 µM protein
[6] = biological target: P51572; assay: native MS; native ESI MS, 150 mM NH4 acetate pH 7, 1.24 mg/mL further diluted in 15% acetonitrile and 5% 2-propanol, LTQ-Orbitrap Velos
[7] = biological target: the molecule itself; assay: SEC; calibrated gel filtration, Superdex 200, 10-400 µM protein, 20 mM Na-P pH 7.0, 150 mM NaCl, 0.1 mM TCEP; Stoke's radius compared with radii of gyration of dimer and tetramer

B1: BAP29 full-length C-terminal cytoplasmic region (residues 125-237), untagged (protein)
chain: TQLAKELSNKGVLKTQAENTNKAAKKFMEENEKLKRILKSHGKDEECVLEAENKKLVEDQEKLKTELRKTSDALSKAQNDVMEMKMQSERLSKEYDQLLKEHSELQDRLERGN
[1]
  binding result: no binding
[2]
  binding result: no binding

B2: Selenomethionine labeled BAP31 vDED (residues 168-233), untagged (domain or fragment, human, UniProt P51572 168-233, looked up)
chain: LDVGNAEVKLEEENRSLKADLQKLKDELASTKQKLEKAENQVLA[SeMet]RKQSEGLTKEYDRLLEEHAKL
notes: BAP31, human, UniProt P51572, vDED domain, residues 168-233; Same construct as m1, with selenomethionine; used for the P3_(2)21 crystal form at pH 4.2 (residues 169-220 modeled); also called BAP31 vDED acidic pH (P3_(2)21 form); source: E. coli BL21(DE3) Rosetta 2 grown in minimal medium, purified as the native protein with 2 mM TCEP; not shown: His6, N-terminal, cleaved
[3]
  binding result: binds

B3: BAP31 full-length C-terminal cytoplasmic region (residues 124-242), untagged (domain or fragment, human, UniProt P51572 124-242, looked up)
chain: SQQATLLASNEAFKKQAESASEAAKKYMEENDQLKKGAAVDGGKLDVGNAEVKLEEENRSLKADLQKLKDELASTKQKLEKAENQVLAMRKQSEGLTKEYDRLLEEHAKLQAAVDGPMD
notes: BAP31, human, UniProt P51572, C-terminal cytoplasmic region, residues 124-242; also called BAP31 Cyt; BAP31 full-length cytoplasmic; source: E. coli BL21(DE3) Rosetta 2, purified (IMAC, TEV cleavage, reverse IMAC, gel filtration); not shown: His6, N-terminal, cleaved
[4]
  binding result: no binding
[5]
  binding result: binds

B4: BAP31 vDED (variant of death effector domain of human BAP31, residues 168-233), untagged (domain or fragment, UniProt P51572 168-233, looked up)
chain: LDVGNAEVKLEEENRSLKADLQKLKDELASTKQKLEKAENQVLAMRKQSEGLTKEYDRLLEEHAKL
notes: BAP31, human, UniProt P51572, vDED domain, residues 168-233; Vector pNIC28-Bsa4; also called vDED domain of BAP31; source: E. coli BL21(DE3) Rosetta 2, purified (IMAC, TEV cleavage, reverse IMAC, gel filtration); not shown: His6, N-terminal, cleaved
[6]
  dimer peak height relative to the monomer peak: ≥35% of the monomer peak height
[7]
  stoichiometry N: 2
